Measurements taken from US20200369774A1 (JIANGSU HENGRUI MEDICINE, published 2020).

Key:
[1] = target: T1, hIL-6R.BP15 (human interleukin-6 receptor with BP15 tag, biotinylated) (human, UniProt P08887 20-365, site-directed biotinylation on the BP15 tag); assay: blocking ELISA: coated IL-6.Fc, 1 ng/ul biotinylated IL-6R.BP15 with serially diluted antibody, HRP-streptavidin, OD450; blocked ligand IL-6.Fc; unit from the abscissa
T1 sequence: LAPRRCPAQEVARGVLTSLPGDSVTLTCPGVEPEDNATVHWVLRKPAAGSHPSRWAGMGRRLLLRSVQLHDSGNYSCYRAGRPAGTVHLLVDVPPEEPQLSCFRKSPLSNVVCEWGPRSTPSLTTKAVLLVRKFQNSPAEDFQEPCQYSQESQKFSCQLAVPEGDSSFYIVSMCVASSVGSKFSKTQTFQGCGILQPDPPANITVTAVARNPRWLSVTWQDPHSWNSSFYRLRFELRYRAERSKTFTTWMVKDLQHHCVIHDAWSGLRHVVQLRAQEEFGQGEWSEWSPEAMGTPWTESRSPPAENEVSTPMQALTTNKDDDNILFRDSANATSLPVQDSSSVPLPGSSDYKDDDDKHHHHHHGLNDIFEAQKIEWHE
Protocol: The formation of IL-6R/IL-6 complex can be blocked by the binding of IL-6R antibody to IL-6R, indicating the downstream cell signaling could be blocked by preventing IL-6/IL-6Rcomplex formationon the cell membrane. All of the expressed the purified antibodies were tested for their abilities to block the binding between IL-6 and IL-6R by ELISA. The procedures was descripted as follows:
The plates were coated with100 μl of 2 ng/μl IL-6.Fc at 4° C. overnight, and blocked with 2% skim milk at 37° C. for 1 hour. The plates were then washed, incubated with 100 μl of serial diluted testing samples with and 1 ng/μl IL-6R.BP15. After 1 hourincubation at 37° C,. the plates were washed andHRP-streptavidin (Jackson, 016-030-084) diluted at 1:4000 was added to the plate followed by incubation. After wash and 100 μl TMB develoment at room temperature for 5 min. 100 μl of 1M H₂SO₄ was added to terminate the reaction. The OD₄₅₀ values were read.

[2] = target: T1, hIL-6R.BP15 (human interleukin-6 …); assay: blocking ELISA: coated gp130, IL-6.his and IL-6R.BP15 (0.06 ug/ml) with serially diluted antibody, HRP-streptavidin, OD450; blocked: binding of the IL-6/IL-6R complex to gp130; unit from the abscissa
Protocol: The complex of IL-6 and IL-6R can bind to GP130. The assay will evaluate if the selected antibodies were able to block the formation of IL-6/IL-6R/gp130 complex by binding to IL-6R. The plates were coated with 1 μg/ml gp130 (diluted in PBS) at 4° C. overnight. The coating solution was discarded, and plates were blocked with 5% skim milk in PBS at 37° C. for 2-3h. After blocking, the plates were washed 3 times with washing buffer PBST (0.1% Tween-20 in PBS).
IL-6.his and IL-6R.BP15 were diluted with 1% BSA in PBS to a concentration of 0.06 μg/ml. Starting at 50 ug/ml, IL-6R antibodies were 1:3 serially diluted in dilution buffer and Both testing antibody samples and IL-6/IL-6R complex were added to the plate followed by lh incubation at 37° C. After that, the plates were washed for 3 times with washing buffer PBST (0.1% Tween-20 in PBS).
1:2000 diluted Secondary antibody HRP streptavidin (Jackson, 016-030-084) was added to the plate followed by 1 h incubation at 37° C.After incubation and wash,. TMB was used for development. OD₄₅₀ values were read.

[3] = target: T2, membrane-type IL-6R on cells (U266B1, TF-1, Hep3B) (UniProt P08887 20-468, limits assumed); assay: cell-based or functional assay
T2 sequence (looked up): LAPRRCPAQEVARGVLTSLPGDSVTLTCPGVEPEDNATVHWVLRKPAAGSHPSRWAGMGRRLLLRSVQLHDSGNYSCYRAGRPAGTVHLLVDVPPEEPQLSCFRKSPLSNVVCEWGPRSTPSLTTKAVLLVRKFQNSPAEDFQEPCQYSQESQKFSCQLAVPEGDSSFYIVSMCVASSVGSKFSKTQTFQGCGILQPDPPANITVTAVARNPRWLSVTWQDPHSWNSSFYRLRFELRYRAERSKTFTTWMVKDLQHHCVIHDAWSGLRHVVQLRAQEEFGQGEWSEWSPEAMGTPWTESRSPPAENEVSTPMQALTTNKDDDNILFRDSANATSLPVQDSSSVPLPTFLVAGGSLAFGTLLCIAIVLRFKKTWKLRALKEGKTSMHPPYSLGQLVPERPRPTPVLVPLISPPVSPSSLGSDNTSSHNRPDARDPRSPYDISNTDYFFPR

Binder | IC50 [1] | IC50 [2] | Relative expression level of hepcidin mRNA (fold) in Hep3B cells with 5 nM antibody and 10 ng/ml IL-6 (blank 1; IL-6 only 2.783) [3]
Sari (antibody, human IgG1, kappa, V domains shown, Positive control antibody; also called Sarilumab; anti-IL-6R antibody sarilumab (Regeneron)) VH: EVQLVESGGGLVQPGRSLRLSCAASRFTFDDYAMHWVRQAPGKGLEWVSGISWNSGRIGYADSVKGRFTISRDNAENSLFLQMNGLRAEDTALYYCAKGRDSFDIWGQGTMVTVSS VL: DIQMTQSPSSVSASVGDRVTITCRASQGISSWLAWYQQKPGKAPKLLIYGASSLESGVPSRFSGSGSGTDFTLTISSLQPEDFASYYCQQANSFPYTFGQGTKLEIKR | 0.5 µg/mL | 0.0474 µg/mL | 
Tocilizumab (antibody, human IgG1, kappa, V domains shown, Positive control; also called anti-IL-6R humanized mAb tocilizumab) VH: EVQLQESGPGLVRPSQTLSLTCTVSGYSITSDHAWSWVRQPPGRGLEWIGYISYSGITTYNPSLKSRVTMLRDTSKNQFSLRLSSVTAADTAVYYCARSLARTTAMDYWGQGSLVTVSS VL: DIQMTQSPSSLSASVGDRVTITCRASQDISSYLNWYQQKPGKAPKLLIYYTSRLHSGVPSRFSGSGSGTDFTFTISSLQPEDIATYYCQQGNTLPYTFGQGTKVEIKR | 0.466 µg/mL | 0.49 µg/mL | 1.87 fold
